Test results from patent publication US20040009571A1 (published 2004).

B1: wild type STAT1 N-domain (human STAT1 amino acid residues 1 to 124) (other, UniProt P42224 1-124, looked up)
chain: MSQWYELQQLDSKFLEQVHQLYDDSFPMEIRQYLAQWLEKQDWEHAANDVSFATIRFHDLLSQLDDQYSRFSLENNFLLQHNIRKSKRNLQDNFQEDPIQMSMIIYSCLKEERKILENAQRFNQ
notes: range 1-124; Expressed in E. coli as a GST fusion and released with TEV protease; also called N-domain of human STAT1
B2: STAT1 N-domain (Q41A) (other, human, UniProt P42224 1-124, looked up)
chain: MSQWYELQQLDSKFLEQVHQLYDDSFPMEIRQYLAQWLEKADWEHAANDVSFATIRFHDLLSQLDDQYSRFSLENNFLLQHNIRKSKRNLQDNFQEDPIQMSMIIYSCLKEERKILENAQRFNQ
notes: range 1-124; Interface I mutant; GST fusion cleaved with TEV protease
B3: STAT1 N-domain (W37F) (other, human, UniProt P42224 1-124, looked up)
chain: MSQWYELQQLDSKFLEQVHQLYDDSFPMEIRQYLAQFLEKQDWEHAANDVSFATIRFHDLLSQLDDQYSRFSLENNFLLQHNIRKSKRNLQDNFQEDPIQMSMIIYSCLKEERKILENAQRFNQ
notes: range 1-124; Interface I mutant; GST fusion cleaved with TEV protease; also called N-domain of STAT1 (W37F)
B4: STAT1 N-domain (Q36A) (other, human, UniProt P42224 1-124, looked up)
chain: MSQWYELQQLDSKFLEQVHQLYDDSFPMEIRQYLAAWLEKQDWEHAANDVSFATIRFHDLLSQLDDQYSRFSLENNFLLQHNIRKSKRNLQDNFQEDPIQMSMIIYSCLKEERKILENAQRFNQ
notes: as for B2
B5: STAT1 N-domain (E29A) (other, human, UniProt P42224 1-124, looked up)
chain: MSQWYELQQLDSKFLEQVHQLYDDSFPMAIRQYLAQWLEKQDWEHAANDVSFATIRFHDLLSQLDDQYSRFSLENNFLLQHNIRKSKRNLQDNFQEDPIQMSMIIYSCLKEERKILENAQRFNQ
notes: range 1-124; Interface II mutant; GST fusion cleaved with TEV protease
B6: STAT1 N-domain (L78A) (other, human, UniProt P42224 1-124, looked up)
chain: MSQWYELQQLDSKFLEQVHQLYDDSFPMEIRQYLAQWLEKQDWEHAANDVSFATIRFHDLLSQLDDQYSRFSLENNFALQHNIRKSKRNLQDNFQEDPIQMSMIIYSCLKEERKILENAQRFNQ
notes: range 1-124; Interface II mutant; GST fusion cleaved with TEV protease; Its CD spectrum was identical to wild type; also called STAT1 L78A
B7: STAT1 N-domain (M28A) (other, human, UniProt P42224 1-124, looked up)
chain: MSQWYELQQLDSKFLEQVHQLYDDSFPAEIRQYLAQWLEKQDWEHAANDVSFATIRFHDLLSQLDDQYSRFSLENNFLLQHNIRKSKRNLQDNFQEDPIQMSMIIYSCLKEERKILENAQRFNQ
notes: as for B5
B8: STAT1 N-domain (L15A) (other, human, UniProt P42224 1-124, looked up)
chain: MSQWYELQQLDSKFAEQVHQLYDDSFPMEIRQYLAQWLEKQDWEHAANDVSFATIRFHDLLSQLDDQYSRFSLENNFLLQHNIRKSKRNLQDNFQEDPIQMSMIIYSCLKEERKILENAQRFNQ
notes: as for B5
B9: STAT1 N-domain (Q8A) (other, human, UniProt P42224 1-124, looked up)
chain: MSQWYELAQLDSKFLEQVHQLYDDSFPMEIRQYLAQWLEKQDWEHAANDVSFATIRFHDLLSQLDDQYSRFSLENNFLLQHNIRKSKRNLQDNFQEDPIQMSMIIYSCLKEERKILENAQRFNQ
notes: as for B5
B10: STAT1 N-domain (F77A) (other, human, UniProt P42224 1-124, looked up)
chain: MSQWYELQQLDSKFLEQVHQLYDDSFPMEIRQYLAQWLEKQDWEHAANDVSFATIRFHDLLSQLDDQYSRFSLENNALLQHNIRKSKRNLQDNFQEDPIQMSMIIYSCLKEERKILENAQRFNQ
notes: range 1-124; Interface II mutant; GST fusion cleaved with TEV protease; Its CD spectrum was identical to wild type; also called STAT1 F77A
B11: STAT1 N-domain (R70A) (other, human, UniProt P42224 1-124, looked up)
chain: MSQWYELQQLDSKFLEQVHQLYDDSFPMEIRQYLAQWLEKQDWEHAANDVSFATIRFHDLLSQLDDQYSAFSLENNFLLQHNIRKSKRNLQDNFQEDPIQMSMIIYSCLKEERKILENAQRFNQ
notes: as for B2

Key:
[1] = target: STAT1 N-domain (S12A) (human) (UniProt P42224); assay: analytical ultracentrifugation, sedimentation equilibrium; self-association
[2] = target: the molecule itself; assay: analytical ultracentrifugation, sedimentation equilibrium; self-association (monomer 15,223 Da)
Description: (§1) As described below, point mutations in STAT1 were introduced at several sites at each of Interface I and II. The point mutation introduced in each of the STAT1 N-domain mutant proteins is indicated in the first column. The approximate molecular weight estimated by sedimentation equilibrium experiments, and migration as a monomer or dimer species on gel filtration analysis, is shown for each mutant protein.
(§2) For gel filtration analysis, 1.5 mg of purified STAT N domain protein in a volume of 500 μl was run on a 120 ml Superdex 75 column at a flow rate of 0.5 ml/min, in 50 mM Tris, pH 8.0, 100 mM NaCl and 1 mM DTT. Equilibrium sedimentation experiments were performed using a Beckman Optima XL-A analytical ultracentrifuge with an An-60 Ti rotor and six-sector cells. STAT N-domain proteins at concentrations of 0.65, 0.32 and 0.16 mg/ml were centrifuged in the gel filtration buffer, at 25,000 rev/min. at 4° C. for 20 h. Subsequently, absorbance measurements at 280 nm were taken in 0.001 cm radial steps and equilibrium was ascertained by comparing scans taken at 1 h intervals. The Optima XL-A/XL-I data analysis software from Beckman Coulter was used for data processing and curve fitting. A partial specific volume of 0.73 cm³/g was used and background absorbance was corrected empirically by allowing the baseline to float during the fitting calculations.

[3] = target: the molecule itself; assay: analytical ultracentrifugation, sedimentation equilibrium; self-association
Description: as §1, §2

[4] = target: the molecule itself; assay: analytical ultracentrifugation, sedimentation equilibrium (self-association)
From the text: Not only is Interface II more extensive than Interface I, it also involves interactions between hydrophobic residues (unlike the essentially polar nature of Interface I). Certain residues at interface II were individually replaced by Ala (Table 1) and the mutant STAT N-domains were examined for dimerization. […] The results for mutations at the other side of the interface provide evidence for interference with dimer formation. M28A migrated as an intermediate between dimer and monomer on gel filtration analysis, but appeared as a dimer by analytical ultracentrifugation analysis. […] The hydrophobic nature of the residues at positions 77 and 78 is conserved between STAT1 and STAT4, which has leucine residues at both positions. Likewise, Met 28 is conserved in STAT4.
For gel filtration analysis, 1.5 mg of purified STAT N domain protein in a volume of 500 μl was run on a 120 ml Superdex 75 column at a flow rate of 0.5 ml/min, in 50 mM Tris, pH 8.0, 100 mM NaCl and 1 mM DTT. […] Subsequently, absorbance measurements at 280 nm were taken in 0.001 cm radial steps and equilibrium was ascertained by comparing scans taken at 1 h intervals. […] A partial specific volume of 0.73 cm³/g was used and background absorbance was corrected empirically by allowing the baseline to float during the fitting calculations.

[5] = target: the molecule itself; assay: gel filtration on Superdex 75 (self-association)
Description: as §2

Molecule	molecular weight by sedimentation equilibrium [3] [kDa]	other results
STAT1 N-domain (S12A) (from UniProt P42224 1-124)	–	molecular weight by sedimentation equilibrium [1]: 17 kDa
B1	–	molecular weight by sedimentation equilibrium [2]: ~28 kDa
B2	~27	–
B3	~28	–
B4	~29	–
B5	~27	–
B6	–	binding result [4]: no binding (tested: 0.65, 0.32 and 0.16 mg/ml); molecular weight by sedimentation equilibrium [2]: ~15 kDa
B7	~26	–
B8	~28	–
B9	~27	–
B10	–	binding result [5]: no binding (tested: 1.5 mg in 500 µl); molecular weight by sedimentation equilibrium [2]: ~15 kDa
B11	~27	–
